Data set [1] concerns the target SaPI1 Stl repressor (Stl^SaPI1), expressed alone with an N-terminal His6-tag and TEV site (Staphylococcus aureus (pathogenicity island SaPI1)). The experiment in a line: SEC-MALS; 2 mg/ml, Stl alone or in complex with Sri; 50 mM Tris-HCl pH 7.5, 250 mM NaCl, 5 mM MgCl2; Protein KW403 column (Shodex), 0.4 ml/min. (In gel filtration, larger molecules generally elute earlier.)

Data set [2] has the same target. Description: SEC-SAXS; 10.0 mg/ml Stl^SaPI1 and 6.5 mg/ml Stl^SaPI1-Sri (His6 tag on Sri); Superdex 200 Increase 3.2, 10 mM Tris pH 8, 1% (w/v) sucrose; mass by Bayesian inference.
For data set [3], the target named is SaPI1 Stl repressor (Stl^SaPI1), untagged, co-expressed with His6-Sri (Staphylococcus aureus (pathogenicity island SaPI1)). The experiment in a line: SEC-MALS; 2 mg/ml, Stl alone or in complex with Sri; 50 mM Tris-HCl pH 7.5, 250 mM NaCl, 5 mM MgCl2; Protein KW403 column (Shodex), 0.4 ml/min.
Data set [4] has the same target. Description: crystal structure; 80α Sri-Stl^SaPI1 SeMet derivative, His6-tag of Sri removed; sitting drop, 15 °C, 0.4 M ammonium phosphate, 25% PEG200; SAD, 2.9 Å.
Data set [5] has the same target. The experiment in a line: SEC-SAXS; 10.0 mg/ml Stl^SaPI1 and 6.5 mg/ml Stl^SaPI1-Sri (His6 tag on Sri); Superdex 200 Increase 3.2, 10 mM Tris pH 8, 1% (w/v) sucrose; mass by Bayesian inference.
In data set [6] the target is SaPI1 Stl repressor L201E mutant (Stl^(SaPI1 L201E)), expressed alone (Staphylococcus aureus (pathogenicity island SaPI1)). Description: SEC-MALS; 2 mg/ml, Stl alone or in complex with Sri; 50 mM Tris-HCl pH 7.5, 250 mM NaCl, 5 mM MgCl2; Protein KW403 column (Shodex), 0.4 ml/min.
Data set [7] deals with SaPI1 Stl repressor L201E mutant (Stl^(SaPI1 L201E)), untagged, co-expressed with His6-Sri (Staphylococcus aureus (pathogenicity island SaPI1)). Description: crystal structure; 80α Sri-Stl^(SaPI1 L201E), His6-tag of Sri removed; sitting drop, 15 °C, 0.1 M Tris-HCl pH 8.5, 22% PEG350; molecular replacement, 2.97 Å.
A further data set concerns the target StlSaPI1 (Staphylococcus aureus pathogenicity …, UniProt O54475 1-247). Description: EMSA; two complex species; BLI: 50 mM Tris-HCl pH 8, 300 mM NaCl, 5 mM MgCl2, 50 uM EDTA, 0.005% Tween, 25 C; EMSA: 50 mM Tris-HCl pH 8, 5 mM MgCl2, 1 mM DTT, 0.1 mM EDTA, 5% glycerol, 1. The note with it: protein: recombinant; tags: N-terminal His6 + TEV site; chain copies: 4; near blunt as printed. A general note: Mobility shift assays separate free from complexed probe on a gel.

For “SaPI1 Stl repressor (Stl^SaPI1), expressed alone with an N-terminal His6-tag and TEV site (natural protein)”, the stoichiometry N in data set [1] and in data set [2] was 4 each time. “SaPI1 Stl repressor (Stl^SaPI1), untagged, co-expressed with His6-Sri (natural protein)”: the stoichiometry N in data set [3], in data set [4] and in data set [5] was 4 in each case. As for “SaPI1 Stl repressor L201E mutant (Stl^(SaPI1 L201E)), expressed alone (natural protein)”, the stoichiometry N in data set [6] came out at 2. “SaPI1 Stl repressor L201E mutant (Stl^(SaPI1 L201E)), untagged, co-expressed with His6-Sri (natural protein)” came in with a stoichiometry N in data set [7] of 2.

B1: Operator 1-4 (dsDNA)
DNA 1: GGATAAGTTGTACTTTGAGTACAATATTTTAAAAAATGAAAAAAAAAAAAGAAGTGTGTAATATTTGTTTAAAAAACAAAAAAAAAAAAAGTACTTGTAGTACTAAAAGAAC
DNA 2: GGTTCTTTTAGTACTACAAGTACTTTTTTTTTTTTTGTTTTTTAAACAAATATTACACACTTCTTTTTTTTTTTTCATTTTTTAAAATATTGTACTCAAAGTACAACTTATCC
B1: the binding result with StlSaPI1 is “binds”.

By stoichiometry N is commonly meant the number of molecules, sites or subunits per partner or assembly.
